Experimental data from the DeepSol protein solubility set.

test: soluble on expression in E. coli; label from the status in PepcDB or PDB records

Row | Sequence | soluble on expression in E. coli
1 | MRSMTDVRRYWISLLRKICEMPLELCASDRLKKSMPVEGKKSEERRKFTHLELLGRIFCGISPFLELNRESPSTDPEERKIATRLSEFAVKSLDVATNPNCKDYMNFKEGRQPLVDAAFLVEAILRAPKVLWEDLDVSTKKRLIRELKATRKIEPYFSNWLLFSAMIETFFFFAGEEWDSTKVDLILKNVESWYKGDGAYGDGPFFRWDYYNSFVIYPMTIDVLRIISEEKTEWKELYVKVLRRAQRYAVVLERMISPEGTFPIIGRSITYRTAVFHLLSQLSLLHLLPASLSPAQVRCALTAVLRRIFENPSTFDENGWLKIGVIGSQPSLGEEYITTGSLYLCTTVFLPLGLPTSDPFWRDPCKKWTNKKVWEGEDVAPDRALEDLEHHHHHH | soluble
2 | MPRDVQVLPIATNTKVLRARSWSRLRFEIEYALERGTTSNSYVIEGDKTAIIDPPVESFMKIYLEALQQTVNLKKLDYVILGHFSPNRIPTFKALLELAPQITFVCSLPAAGDLRAAFPDDNLNILPMRGKETLDLGKGHVLKFLPIPSPRWPAGLCTYDVQTQILYTDKIFGAHICGDDVFDDNWESFKEDQRYYFNCLMAPHAIHVEAALEKISDLQVRLYAVGHGPLVRTSLIALTQAYADWSKAQKDREISVALLYASAYGNTATIARAIALGLTKGGVAVKSINCEFATPEEIQTNLEQVDGFLIGSPTIGGHAPTPINTALGIVLKVGDNNKLAGVFGSYGWSGEALDMIEGKLRDAGYRFGLDTLKVKFKPDDVTLKFCEEVGTDFAQTLKKAKKVRVPQQAATPVEQAVGRIVGSVCVITAKQGDVSTGMLGSWVSQATFNPPGLTVAIAKERAIESLMYPGGKFALNILSEGNHLEYMKHFRKNFAPGEDRFANFTTTEADNGCTVLADALAYVECSVDQRLECGDHWVVYATVDNGKLLKPDDVTAINHRKTGNHYLEHHHHHH | not soluble
3 | MIPMSETKNELEILLEKAATEPAHRPAFFRTLLESTVWVPGSAAEGEAIVEDSALDLQHWEKEDGTTVIPFFTSLEALQQAVEDEQAFVVMPARTLFEMTLGETLFLNAKLPTGKEFMPREISLLLAEEGSPLSTQEVLEGGESLILSEVAEPPSQMIDSLTTLFKTIKPVKRAFLCAIKEHADAQPNLLIGIEADGEIEEIIHAAGNVATDTLPGDEPIDICQVRKGEQGISHFITEHIAPFYERRWGGFLRDFKQNRII | not soluble
4 | MTRHQTHLPFHIVQEGNSIDKPPYSYVALIAMAIDASPDKRMTLNQIYKFIEAKFPYYRDADAKRKQGWQNSIRHNLSLNDCFVKKARDGQSCANDRKGNYWQMVADNAPQFDNGNFKRRRVKRLGIGKMGYANTTETTETGTILQQQLPFFNGLKWPQNIQTMDPFQFFKFQYPNSITDSANTSQINNSSSSSSSFDTSIYTSAFPIPTSHFDTNLVAPSQPPPVVSDVEVVPSDTVKEEVLVDMKPLIPGISSTTFLTSLQMTDPRSIEQQQLLSTASNMYPNAFMPPYTNWSCQPTTTFTGLSFDDPSLYGYGQQFPASS | not soluble
5 | MNVQETYLKELKARGYQPDEAQQRAVDRLQLCYDEWVAYKARRSSALRKLLVRPELPRGVYMWGGVGRGKSFLMDAFYSCVPVVRKTRLHFHEFMREVHRQLEELRGRADPLDELARRIAKRYRLICFDEFHVSDVADAMILHRLLDQLFANGVQFVMTSNYRPDLLYPDGLHRDRVLPAIALLQEKLDVLNVDAGIDYRKRAMEQVQAYHTPLGAQANSALRDAFAAVAEAPDESPILHIEHREIRAQRKAGGVVWFDFATLCGGPRSQNDYLEIAARFHTVILADVPKMTPRMASEARRFTWLIDVLYDHKVKLLMSAEVPADALYTEGQMANEFHRTVSRIIEMQSREYLEAPRRAVDTTLTLEHHHHHH | not soluble
6 | MLKGKTIYVRPLEVTDAEENLGLQSENRDFFEQFSMIRADDYYTVEGQRKRITEYQERLEKDEEYHFGIFTASDDRLIGTVSLFQIIRGALQTAFIGYFLDKAHNGKGIMTEAVRLVVDYAFHELKLHRIEAGVMPRNLGSMRVLEKAGFHKEGIARKNVKINGVWEDHQVLAILNPDDEQLEHHHHHH | not soluble
7 | MNKRYNTLNDYYRRIFGEKTFKVPIDAGFDCPNRDGTVAHGGCTFCTVSGSGDAIVAPEAPIRDQFYKEVDFMHRKWPDVKKYLVYFQNFTNTHDKVEVIRERYEQAINEPGVIGINIGTRPDCLPDVTILYLAELSQRLHVTLELGLQTTYEKTSKLINRAHSYQLYVETVKRVRDLAPKVEIVSHLINGLPGESHEMMLENVRRCVTDNDIDGIKLHLLHLMTNTRMQRDYHEGRLHLLSMEEYVNIICDQLEIIPKNIVIHRLTGDAPRDMLIGPMWSLNKWEVLNSIDREMERRNAYQGCKLEVNI | not soluble
8 | MGSDKIHHHHHHMAAKIITVFNQKGGCGKTTVSMHLAGTLGLRGARSMLVDMDEQGTATRWAAQASDERPFPASVIGLAPSGGAMHREVRKFVQDYDYIVVDCPPAVHSAAPSSALLISDLAIIPVVPSPPDLWAAVAAKTLAQHAQVQNETLLIRVMANMVQRRVSIARQAIEILGDDGEVPLLNSMIGSRSAFRECQAIGCTVHGVAGAREAVQEVDMMVDEVLSLIEH | not soluble
9 | MSLPNNEKITRLQQQEKNTQQTVTVAKNKAANLAKFQKEVEATTLDFETQAALLPKEKEIPKLLKDISALGSNTGLDFISFKPLANRPKDFYAEIPISIQVRGPYHNVGSFFDQINKLERIVSVKSVKMTSPKKEDGEMLLTSNCQLVTYQFTNIELPKEGHHHHHH | soluble
10 | MAHHHHHHMQSTGGLPFYGNLYAGRVDSQNYVPPRQGGSGLLEVDKSLWDNPATRQKLQSCPYFALSDQVMFHNMDPVYLDPGLLSPEEHQLLLLFSRAYYEKWSVIHRRPPHALPRLRITYGSSKLLDEILFLLDVHPDVCEVLKKEYAVDDSTLIGMNPNLWSSAYLDPANMDHLSGRVLEFAGVPEPKRTKFFLLLDQMRRIKVHRRDLPNSEERVDVVPFCYGVTLYDFCKFLGITPYSGQLKVYDYVDLQGTARSETLKDEDSYFDYLVALFYRADVRSATLTDLADASDHTCRYTVTVEPFTTADRRVGRWF | soluble
11 | MGATLTVAVAACTVSTPTSAIPVTHIKCLRINGQIKCVKPISPNTTPAAEHIEHVRKNPRRKAAMDRAAARIADKIALKAGGETFVSLRMKKGFTQSELATAAGLPQPYLSRIENSKQSLQDKTVQKLANALGVSPLEVRAAFERRYEYMEQA | soluble
12 | MSLHVLTLAIARAASIDELALAANKQRELVESLMSRGVRTRFVMELIAAVNEQIIEKAFELVVPPALHDQCCLVVLGSEGRGEQILKTDQDNALIIQDGLEWHQCQPIMETLTHTLLQLGYPLCPGKVMVNNPKWVRSQSDWKRTLTDWVKAARPEQVMDIAIFADAHAVAGNRALLAPVKAHLQHLMAGQELILAEFTRPALNFSVPLTLFGNVKSSKQGIDIKQGGIFPIVHGVRALSLEHAIDANNTFDRIEALVKKRVLEQETGDNLSEAFKLFLKLRLAQQLGNQHSTNQLDFKQLDRTERDLLRHSLHVVKKFKQWLGYHYQIRDEGHHHHHH | soluble
13 | GMRLPLNQRVAILLHEGTTGTIGKTGLALLRYSEAPIVAVIDRNCAGQSLREITGIYRYVPIVKSVEAALEYKPQVLVIGIAPKGGGIPDDYWIELKTALQAGMSLVNGLHTPLANIPDLNALLQPGQLIWDVRKEPANLDVASGAARTLPCRRVLTVGTDMAIGKMSTSLELHWAAKLRGWRSKFLATGQTGVMLEGDGVALDAVRVDFAAGAVEQMVMRYGKNYDILHIEGQGSLLHPGSTATLPLIRGSQPTQLVLVHRAGQTHNGNNPHVPIPPLPEVIRLYETVASGGGAFGTVPVVGIALNTAHLDEYAAKEAIAHTIAETGLPCTDVVRFGADVLLDAVMQN | soluble
14 | NTDYYGLDYALSFNQVEIEEKRIVIAGSGGIARTVIRYMLDHGAHRVDVLTRNAQNARRNLDIPGIGLHENIDEDYDIYVNCTPLGTLGDGDPFSTVDFRSGRTGIDLVYNPPDTPFLKRMRNAGGRTVSGLDVFIGQGLRTLELVFGIRPDSIFREYAVEALNEIR | not soluble
15 | MEAVRPDSCESGPAAPRAEERPAPEARVHFRVTRFIMEAGVKLGMQSIPIATACTIYHKFFCEINLDAYDLYLVAMSSIYLAGKVEEQHLRTRDIINVSHRYFNPGSEPLELDSRFWELRDSIVQCELLMLRVLRFQVSFQHPHKYLLHYLISLKNWLNRYSWQRTPISVTAWALLRDSYHGGLCLRFQAQHLAVAVLYLALQVYGVEVPAEGEAEKPWWQVFSDDLTKPIIDNIVSDLIQIYTMDTEIP | not soluble
16 | MGSDKIHHHHHHMSNVTAEQKKEVKGRGFLPSRDGEHFAARIITVNGVINASQAKKIAEAAEKFGNGQLAFTTRLTVELPGVKFEDIEALSEFIASENLITGGTGSRVRPVVACKGTVCVHGLADTQALAAEIHEEFYKNWYDVKLPHKFKIGVGGCPNNCIKPDLNDLGIVGQRVPDYDSELCVGCKKCAVVEVCPVKAAKLTDKGKLEIDSNLCNNCGKCIESCNFDSIEEKESGYKVYIGGKWGKSVRPGTQIDRLFSKEELMTLIEKAILLFREQGNTGERFGITIDRIGADKFIEMLLSDEVLERKEEILEALLHLTGGAVC | not soluble
17 | SAAARATTPADGEEPAPEAEALAAARERSSRFLSGLELVKQGAEARVFRGHFQGRAAVIKHRFPKGYRHPALEARLGRRRTVQEARALLRCRRAGISAPVVFFVDYASNCLYMEEIEGSVTVRDYIQSTMETEKTPQGLSNLAKTIGQVLARMHDEDLIHGDLTTSNMLLKPPLEQLNIVLIDFGLSFISALPEDKGVDLYVLEKAFLSTHPNTETVFEAFLKSYSTSSKKARPVLKKLDEVRLRGRKRSMVG | soluble
18 | MFCEKAMELIRELHRAPEGQLPAFNEDGLRQVLEEMKALYEQNQSDVNEAKSGGRSDLIPTIKFRHCSLLRNRRCTVAYLYDRLLRIRALRWEYGSILPNALRFHMAAEEMEWFNNYKRSLATYMRSLGGDEGLDITQDMKPPKSLYIEVRCLKDYGEFEVDDGTSVLLKKNSQHFLPRWKCEQLIRQGVLEHILS | soluble
19 | PEPAQQQAPVEKPKKKAKLEVIGDDVVSIMVSLRWLEFLLDNYGPENTLDVLDYYESLGWISATVKEQMMKYAKMTGVMNPAQEYKIKPSIQDHIINMLFIEKLRGEEINRDLIEALEREFRTIRKGVDELYGI | not soluble
20 | MDNTRIMAAREAGVKVEANVHNFNDRLSSKERIRFKHDGIEPQTWGEAIQLRIRKQETQKGVPEGWSKRFPNGSIYDVKVLRK | not soluble
21 | MGSDKIHHHHHHMISVGKGKIMITPDHNIIKPIAIVLPQFHPIRENNLWWGEGFTEWTNVVKGRPRFRGHYQPHLPKDLGYYDLRLPETRKAQAALATKYGIYGFCYYHYWFNGRRILESPVDAMLESGEPDFPFMLCWANENWTRNWDGSYNKVLLEQKYSKEDFVNHARHLIRYFKDDRYIKIDGRPVFAIYKDDIGEDIEKYLLLFRNELLKNSINVFLCRFERNIGTSRDLNRAFQVFDAGIEFQPLARQFSYLINYNNRLSRRIYKTLKKHFCFCKNIDDVYVYSHLVDNDLKYDFQQGWPIFPGVCPGWDNSARRRDTTAIIFDKSTPEIFKLWVREKIRITDWNLLPERFLFVNAWNEWAEGNHLEPCEKWGTQYLAALQAGINEM | not soluble
22 | MPQGSALSDTERAQLDVMKLLNVSLHEMSRKISRSRHCIRVYLKDPVSYGTSKRAPRRKALSVRDERNVIRAASNSCKTARDIRNELQLSASKRTILNVIKRSGVIVRQKLRPAPLLSADHKLKRLEFAKNNMGTNWSKVVFSDEKKFNLDGPDGCRYYWRDLRKEPMVFSRRNFGGGTVMVWGAFTEKKKLEIQFVSSKMNSTDYQNVLELELSKYLRHYSGKDFRFQQDNATIHVSNSTRDYFKLKKINLLDWPARSPDLNPIENLWGILVRIVYAQNKTYPTVASLKQGILDAWKSIPDNQLKSLVRSMEDRLFEIIRTQGNPINY | not soluble
